Data reported in patent US20080286819A1.

Columns and labels:
[1] = target: Human soluble FcγRIIB (human) (UniProt P31994); experiment: SPR, soluble human Fc-receptor
[2] = target: Human soluble FcγRIIIA^158F (human) (UniProt P08637); experiment: SPR, soluble human Fc-receptor
[3] = target: Human soluble FcγRIIA^131H (human) (UniProt P12318); experiment: SPR, soluble human Fc-receptor
[4] = target: Human soluble FcγRIIA^131H (human) (UniProt P12318); experiment: ratio of SPR affinities; reference human FcγRIIB
[5] = target: Human soluble FcγRIIIA^158F (human) (UniProt P08637); experiment: ratio of SPR affinities; reference human FcγRIIB
[6] = target: Human soluble FcγRIIA^131H (human) (UniProt P12318); experiment: SPR (Biacore), antibody immobilized, soluble FcγR injected
[7] = target: Human soluble FcγRIIA^131R (human) (UniProt P12318); experiment: as above
[8] = target: Human soluble FcγRIIIA^158F (human) (UniProt P08637); experiment: as above
[9] = target: Mouse soluble FcγRI (mouse) (UniProt P26151); experiment: as above
[10] = target: Mouse soluble FcγRIIB (mouse) (UniProt P08101); experiment: as above
[11] = target: Mouse soluble FcγRIII (mouse) (UniProt P08508); experiment: as above
[12] = target: Mouse soluble FcγRIV (mouse); experiment: as above
[13] = target: Human soluble FcγRIIIA^158F (human) (UniProt P08637); experiment: SPR (Biacore), antibody immobilized; + = detectable but very low binding
[14] = target: Mouse soluble FcγRIIB (mouse) (UniProt P08101); experiment: as above
[15] = target: Mouse soluble FcγRIII (mouse) (UniProt P08508); experiment: as above
[16] = target: Human soluble FcγRIIB (human) (UniProt P31994); experiment: SPR (Biacore), antibody immobilized, soluble FcγR injected
[17] = target: Mouse soluble FcγRIV (mouse); experiment: SPR (Biacore), antibody immobilized; + = detectable but very low binding
[18] = target: Human soluble FcγRIIB (human) (UniProt P31994); experiment: SPR; reference human FcγRIIIA and FcγRIIA
[19] = target: Human soluble FcγRIIA^131H (human) (UniProt P12318); experiment: SPR (Biacore), antibody immobilized; + = detectable but very low binding
[20] = target: Human soluble FcγRIIA^131R (human) (UniProt P12318); experiment: as above
[21] = target: Mouse soluble FcγRIIB (mouse) (UniProt P08101); experiment: SPR; reference mouse FcγRIII
[22] = target: Mouse soluble FcγRIII (mouse) (UniProt P08508); experiment: ratio of SPR affinities; reference mouse FcγRIIB
[23] = target: Mouse soluble FcγRIV (mouse); experiment: SPR; reference mouse FcγRIIB
[24] = target: Mouse soluble FcγRIV (mouse); experiment: ratio of SPR affinities; reference mouse FcγRIIB

Chain of UniProt P08508 (P08508 31-215): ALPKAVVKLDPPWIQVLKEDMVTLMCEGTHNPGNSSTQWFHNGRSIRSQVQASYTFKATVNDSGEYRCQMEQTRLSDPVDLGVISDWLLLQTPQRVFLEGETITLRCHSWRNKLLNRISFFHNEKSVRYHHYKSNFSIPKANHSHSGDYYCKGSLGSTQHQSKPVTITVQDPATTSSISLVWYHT
Chain of UniProt P08637 (P08637 17-208): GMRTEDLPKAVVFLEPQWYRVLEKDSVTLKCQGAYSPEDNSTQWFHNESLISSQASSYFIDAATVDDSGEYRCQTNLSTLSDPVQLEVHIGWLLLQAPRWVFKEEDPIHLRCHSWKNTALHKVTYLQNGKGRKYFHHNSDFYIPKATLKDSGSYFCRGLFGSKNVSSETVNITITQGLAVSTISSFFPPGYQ
Chain of UniProt P26151 (P26151 25-297): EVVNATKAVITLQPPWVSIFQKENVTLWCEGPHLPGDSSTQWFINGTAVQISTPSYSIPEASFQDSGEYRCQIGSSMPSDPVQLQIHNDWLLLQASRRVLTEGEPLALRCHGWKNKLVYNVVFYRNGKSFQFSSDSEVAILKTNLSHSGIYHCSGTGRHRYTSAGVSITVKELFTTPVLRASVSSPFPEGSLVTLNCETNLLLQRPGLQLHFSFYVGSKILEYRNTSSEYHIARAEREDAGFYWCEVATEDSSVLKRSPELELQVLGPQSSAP
Chain of UniProt P31994 (P31994 43-217): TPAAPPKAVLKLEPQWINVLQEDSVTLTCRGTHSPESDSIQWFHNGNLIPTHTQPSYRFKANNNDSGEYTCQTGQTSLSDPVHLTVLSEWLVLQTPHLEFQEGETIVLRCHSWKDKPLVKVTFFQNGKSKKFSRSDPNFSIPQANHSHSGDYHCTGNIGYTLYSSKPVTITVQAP
Chain of UniProt P08101 (P08101 30-210): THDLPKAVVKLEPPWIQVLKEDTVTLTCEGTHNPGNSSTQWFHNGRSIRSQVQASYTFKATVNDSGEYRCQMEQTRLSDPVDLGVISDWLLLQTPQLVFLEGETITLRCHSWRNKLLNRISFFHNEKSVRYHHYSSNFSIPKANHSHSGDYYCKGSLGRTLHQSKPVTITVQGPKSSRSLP

Row | Substance | Ka [6] [M⁻¹] | Ka [7] [M⁻¹] | Ka [8] [M⁻¹] | Ka [9] [M⁻¹] | Ka [10] [M⁻¹] | Ka [11] [M⁻¹] | Ka [12] [M⁻¹] | Ka [13] [M⁻¹] | Ka [16] [M⁻¹] | other results
1 | FITC-IgG1-Fucose (human IgG1 Fc-switch variant of the 4-4-20 antibody lacking fucose) | – | – | – | – | – | – | – | – | – | Ka [1]: 78100 M⁻¹; Kd [1]: 12.8 µM; Ka [2]: 5.97e+06 M⁻¹; Kd [2]: 0.168 µM
2 | FITC-IgG2-Fucose (human IgG2 Fc-switch variant of the 4-4-20 antibody lacking fucose) | – | – | – | – | – | – | – | – | – | Ka [3]: 135000 M⁻¹; Kd [3]: 7.4 µM; Ka [1]: 25400 M⁻¹; Kd [1]: 39.4 µM; Ka [2]: 144000 M⁻¹; Kd [2]: 6.93 µM; A/I ratio IIA/IIB (KA for FcγRIIA over KA for FcγRIIB) [4]: 5.31; A/I ratio IIIA/IIB (KA for FcγRIIIA over KA for FcγRIIB) [5]: 5.67
3 | hIgG1 (FITC-isotype switch variant, human Fc-switch variant of the 4-4-20 antibody) | 380000 | 270000 | 430000 | 3.8e+06 | 200000 | 35000 | 2.2e+06 | – | – | –
4 | hIgG4 (FITC-isotype switch variant) (antibody) | – | – | – | 72000 | – | – | – | – | 48000 | fold higher affinity than to FcγRIIIA and FcγRIIA [18]: > 4.8 fold; Ka [19]: < 10000 M⁻¹; Ka [20]: < 10000 M⁻¹; Ka [14]: < 10000 M⁻¹; Ka [15]: < 10000 M⁻¹; Ka [17]: < 10000 M⁻¹
5 | mIgG1 (FITC-isotype switch variant) (antibody) | 40000 | 250000 | – | – | 3.3e+06 | 310000 | – | < 10000 | 100000 | fold higher affinity than to FcγRIII [21]: 10 fold; A/I (ratio of KA for the activating receptor FcγRIII to KA for the inhibitory FcγRIIB) [22]: 0.1
6 | mIgG2b (FITC-isotype switch variant) (antibody) | 120000 | 91000 | 10000 | – | 2.2e+06 | 640000 | 1.7e+07 | – | 120000 | fold higher affinity than to FcγRIIB [23]: 10 fold; A/I (ratio of KA for the activating receptor FcγRIV to KA for the inhibitory FcγRIIB) [24]: 7
7 | mIgG3 (FITC-isotype switch variant) (antibody) | – | – | – | – | – | – | – | < 10000 | – | Ka [19]: < 10000 M⁻¹; Ka [20]: < 10000 M⁻¹

The next lines start with results.

Row | Ka [6] [M⁻¹] | Ka [7] [M⁻¹] | Ka [8] [M⁻¹] | Ka [9] [M⁻¹] | Ka [10] [M⁻¹] | Ka [11] [M⁻¹] | Ka [12] [M⁻¹] | Ka [13] [M⁻¹] | Ka [16] [M⁻¹] | Substance | other results
8 | 120000 | 21000 | – | – | – | – | – | < 10000 | – | hIgG2 (FITC-isotype switch variant, human Fc-switch variant of the 4-4-20 antibody) | Ka [14]: < 10000 M⁻¹; Ka [15]: < 10000 M⁻¹
9 | 120000 | 240000 | 180000 | 1.2e+06 | 83000 | – | – | – | 70000 | hIgG3 (FITC-isotype switch variant) (antibody) | Ka [17]: < 10000 M⁻¹
10 | 170000 | 320000 | – | 1.8e+08 | 420000 | 680000 | 2.9e+07 | – | 160000 | mIgG2a (FITC-isotype switch variant) (antibody) | –
